In patent US20240352121A1 (published 2024) one finds EC50 and Kd data, which are given here for three molecules.

Test [1] concerns the target human LAIR-1 fused to the zeta chain of CD3, on UT-140 reporter cells (UniProt P20963 31-164). As to the kind of experiment: cell binding (flow cytometry). In general terms: In flow cytometry, cells or beads pass a laser one at a time.
Test [2] concerns the target T1, LAIR-1 (human; form used for the KD not stated) (UniProt Q6GTX8 22-165).
T1 chain: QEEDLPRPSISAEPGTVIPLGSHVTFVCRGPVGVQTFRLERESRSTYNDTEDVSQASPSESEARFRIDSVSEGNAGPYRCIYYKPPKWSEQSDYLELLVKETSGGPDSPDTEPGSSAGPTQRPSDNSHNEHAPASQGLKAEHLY
In words: kinetic binding; replicate 1.

Test [3] deals with T1, LAIR-1 (human; form used for the KD not …). In words: kinetic binding; replicate 3.
For test [4] the target is unchanged. As to the kind of experiment: kinetic binding; replicate 2.

B1: hLAIR-1 mAb-Parent (antibody, V domains shown)
VH: EVQLVESGGGLVQPKGSLKLSCAASGFTFNTNAMYWVRQAPGKGLEWVARIRSKSSNYATYYADSVKDRFTISRDDSQSMLYLQMNNLKTEDTARYYCVRGGSGFFAYWGQGTLVTVSA
VL: DIQMAQSSSSFSVSLGDRVTITCKASEDIYIRLAWYQQKPGNAPRLLISTATSLETGVPSRFSGSGSGKDYTLSITSLQTEDVATYYCQQYWSTPYTFGGGTRLEIK
The term EC50 denotes the concentration that produces a half-maximal response. Low values mean greater potency, high ones weaker potency. B1 gave a concentration for a half-maximal effect (EC50) in test [1] of 0.15 nM.

B2: 11B3 hG1 (antibody, V domains shown)
VH: EVQLVESGGGLVQPKGSLKLSCAASGFTFNTNAMYWVRQAPGKGLEWVARIRSKSSNYATYYADSVKDRFTISRDDSQSMLYLQMNNLKTEDTARYYCVRGGSGFFAYWGQGTLVTVSA
VL: DIQMAQSSSSFSVSLGDRVTITCKASEDIYIRLAWYQQKPGNAPRLLISTATSLETGVPSRFSGSGSGKDYTLSITSLQTEDVATYYCQQYWSTPYTFGGGTRLEIKR
The term Kd denotes the equilibrium constant for the complex coming apart. A higher Kd goes with a looser complex. Consider B2, for which the values for the Kd in test [2], in test [3] and in test [4] were 1.25 nM, 1.95 nM and 1.16 nM, respectively.

B3: h11B3 LAIR-1 mAb, Anti-LAIR-1 Variant 6 (h11B3 VL-2 / h11B3 VH-3) (antibody, V domains shown)
VH: EVQLVESGGGLVQPGGSLKLSCAASGFTFNTNAMYWVRQAPGKGLEWVGRIRSKSSNYATYYAASVKGRFTISRDDSKNTLYLQMNSLKTEDTAVYYCVRGGSGFFAYWGQGTLVTVSS
VL: DIQMTQSPSSLSASLGDRVTITCKASEDIYIRLAWYQQKPGKAPRLLISTATSLETGVPSRFSGSGSGTDYTFTISSLQPEDIATYYCQQYWSTPYTFGGGTRLEIK
Turning to B3, the Kd was 2.38 nM in test [2] and 2.34 nM in test [3].
